Data reported in patent publication US20210130452A1 (Merck KGaA, published 2021).

T1: human IL-17F (human, UniProt Q96PD4 31-163, biotinylated with Sulfo-NHS-LC-Biotin in the AlphaScreen assays only)
T1 construct: also called hIL-17F; recombinant human IL-17F
T1 sequence: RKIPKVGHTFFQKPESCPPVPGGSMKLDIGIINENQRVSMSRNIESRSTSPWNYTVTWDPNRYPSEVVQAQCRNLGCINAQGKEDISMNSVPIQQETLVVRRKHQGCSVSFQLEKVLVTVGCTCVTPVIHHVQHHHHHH

T2: human IL-17F (human, UniProt Q96PD4 31-163)
T2 construct: made in Hek293 cells (GenBank AF384857); also called hIL-17F; hIL17F
T2 sequence: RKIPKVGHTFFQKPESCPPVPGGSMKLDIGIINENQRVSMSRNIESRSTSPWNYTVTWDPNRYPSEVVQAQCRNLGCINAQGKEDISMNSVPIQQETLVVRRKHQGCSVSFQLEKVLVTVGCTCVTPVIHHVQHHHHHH


Experiments:
human IL-17A [1] = molecular target: T3, human IL-17A (human, UniProt Q16552 24-155, biotinylated with Sulfo-NHS-LC-Biotin in the AlphaScreen assays only); test: cell-based or functional assay
T3 sequence (Q16552 other isoform, or with tags, fused parts or gaps): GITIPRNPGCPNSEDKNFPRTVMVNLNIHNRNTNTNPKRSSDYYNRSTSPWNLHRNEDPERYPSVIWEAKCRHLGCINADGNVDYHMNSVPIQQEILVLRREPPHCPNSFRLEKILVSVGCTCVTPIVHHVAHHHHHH

human IL-17F [2] = molecular target: T1, human IL-17F; test: SPR Biacore, hIL-17F on chip; periplasmic extract (*); NB = no binding
[3] = molecular target: T4, human IL-17A/F heterodimer (human, UniProt Q16552 24-155; Q96PD4 31-163, limits assumed, biotinylated with Sulfo-NHS-LC-Biotin in the AlphaScreen assays only); test: AlphaScreen competition, hIL-17A/F - IL-17RA-Fc
T4 construct: also called hIL-17A/F
Method: (§1) To this mixture, the IL-17RA or IL-17RC Fc-fusions, Acceptor beads and the streptavidin Donor beads were added and further incubated for 1 hour at RT.

[4] = molecular target: T4, human IL-17A/F heterodimer; test: AlphaScreen competition, hIL-17A/F - IL-17RC-Fc
Method: as §1

human IL-17A [5] = molecular target: T3, human IL-17A; test: AlphaScreen competition, hIL-17A - IL-17RA-Fc;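 note: receptor Fc-fusion plus Acceptor and streptavidin Donor beads incubated with the mixture for 1 h at room temperature before reading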
Method: as §1

human IL-17A [6] = molecular target: T3, human IL-17A; test: SPR Biacore, hIL-17A on chip; periplasmic extract (*)
Method: Off-rates of the periplasmic extracts containing anti-IL-17 Nanobodies were measured by Surface Plasmon Resonance (SPR) using a Biacore T100 instrument. […] Periplasmic extracts containing IL-17 neutralizing Nanobodies were injected for 2 minutes at a flow rate of 45 μl/min to allow binding to chip-bound antigen. Next, binding buffer without periplasmic extracts was sent over the chip at the same flow rate to allow spontaneous dissociation of bound Nanobody. From the sensorgrams obtained for the different periplasmic extracts koff-values (k₄) were calculated.

human IL-17A [7] = molecular target: T3, human IL-17A; test: AlphaScreen competition, hIL-17A - IL-17RC-Fc;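 note: Read-out after 1 h at room temperature with the receptor Fc-fusion, Acceptor beads and streptavidin-coated Donor beads present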
Method: as §1

human IL-17A [8] = molecular target: T5, human IL-17A (human, UniProt Q16552 24-155); test: SPR (Biacore) off-rate
T5 construct: secreted form made in Hek293 cells (GenBank U32659); also called hIL-17A; hIL17A
T5 sequence (Q16552 other isoform, or with tags, fused parts or gaps): as above

human IL-17F [9] = molecular target: T2, human IL-17F; test: SPR (Biacore) off-rate
[10] = molecular target: T6, human IL-17A/F heterodimer (human, UniProt Q16552 24-155; Q96PD4 31-163, limits assumed); test: SPR (Biacore) off-rate
T6 construct: bought, made in E. coli (R&D Systems 5194-IL/CF); also called hIL-17A/F; hIL17A/F

human IL-17F [11] = molecular target: T2, human IL-17F; test: AlphaScreen hIL-17F-IL-17RC; vs IL17MS13E02
human IL-17A [12] = molecular target: T5, human IL-17A; test: AlphaScreen hIL-17A-IL-17RA; vs IL17MS13E02
human IL-17A [13] = molecular target: T7, human IL-17A (human, UniProt Q16552 24-155); test: AlphaScreen IL-17A-IL-17RA, average
T7 construct: secreted form (GenBank U32659) expressed in Hek293 with C-terminal 6-His; also called hIL-17A; IL-17A-6HIS
T7 sequence (Q16552 other isoform, or with tags, fused parts or gaps): as above

Binder | IL-17A-induced IL-6 production in HT-1080 cells, Emax (human IL-17A [1]) [%] | IL-17A-induced IL-6 production in HT-1080 cells, IC50 (human IL-17A [1]) [nM] | binding result (human IL-17F [2]) | IC50 [3] [nM] | IC50 [4] [nM] | IC50 (human IL-17A [5]) [nM] | koff (human IL-17A [6]) [s⁻¹] | IC50 (human IL-17A [7]) [nM] | koff (human IL-17A [8]) [s⁻¹] | koff (human IL-17F [9]) [s⁻¹] | koff [10] [s⁻¹] | IC50 fold difference vs WT (human IL-17F [11]) [fold] | IC50 fold difference vs WT (human IL-17A [12]) [fold] | IC50 (human IL-17A [13]) [nM]
01D02 (VHH, Class 1 Nanobody (anti-IL-17A); not shown: c-myc, His6 tag) VHH: EVQLVESGGGLVQAGGSLRLSCAASGLSFSSYALGWFRQAPGKERDFVAAINWSGDNTHYADSVKGRFTISRDNAKNTVSLQMNSLKPEDTAVYYCAAQLGYESGYSLTYDYDYWGQGTQVTVSS | 101 | 4.8 | no binding | 71.7 | 94.7 | 0.13 | 0.00044 | 0.363 |  |  |  |  |  | 
02E03 (VHH, Class 1 Nanobody (anti-IL-17A); not shown: c-myc, His6 tag) VHH: EVQLVESGGGLVQPGGSLRLSCAASGFTFSSYAMSWARQAPGEGLEWVSDINSGGTRTTYADSVKGRFTISRDNAKNTLYLQMNSLKPEDTAVYVCAKLSVFRSQLGGKYYGGDYENRGQGTQVTVSS | 99.3 | 16.4 | no binding |  | > 250 | 0.256 | 0.0009 | 0.778 |  |  |  |  |  | 
03E05 (VHH, Class 1 Nanobody (anti-IL-17A); not shown: c-myc, His6 tag) VHH: EVQLVESGGGLVQAGGSLRLSCAASGVTFDDYSIGWFRQAPGKEREGVSCISSSDGIPYYSDFVKGRFTTSIDNAKNTVYLQMNSLKPEDTAVYYCAAGFGRLCAEFDSWGQGTQVTVSS | 100 | 4 | no binding | > 250 |  | 0.058 | 0.0001 | 0.38 |  |  |  |  |  | 
IL17MS3018 (VHH, basic variant of IL17MS13E02; Kabat numbering; also called IL17MS3018 basic) VHH: EVQLVESGGGLVQPGGSLRLSCAASGRTYDAMGWLRQAPGKEREFVAAISGSGDDTYYADSVKGRFTISKDNSGITMYLQMNSLRPEDTAVYYCATRRGLYYVWDSNDYENWGQGTLVTVSS |  |  |  |  |  |  |  |  | 9.26e-05 | 0.00267 | 1.38e-05 | 0.8 | 1.13 | 
IL17MS3019 (VHH, variant of IL17MS13E02; Kabat numbering) VHH: EVQLVESGGGLVQPGGSLRLSCAASGRTYDAMGWFRQAPGKEREFVAAISGSGDDTYYADSVKGRFTISKDNSGITMYLQMNSLRPEDTAVYYCATRRGLYYVWDSNDYENWGQGTLVTVSS |  |  |  |  |  |  |  |  | 0.000745 | 0.0349 | 0.00031 | 4.6 | 3.72 | 
IL17MS3015 (VHH, name in Kabat numbering, basic + Q18L, A84P; Kabat positions) VHH: EVQLVESGGGLVQPGGSLRLSCTASGTIVNIHVMGWYRQAPGKQRELVALIFSGGSADYADSVKGRFTISRDNSKNTVYLQMNSLRPEDTAVYYCAAEIGYYSGGTYYSSEAHWGQGTLVTVSS |  |  |  |  |  |  |  |  |  |  |  |  |  | 0.171
IL17MS3016 (VHH, name in Kabat numbering, basic + T23A, A84P; Kabat positions) VHH: EVQLVESGGGLVQPGGSQRLSCAASGTIVNIHVMGWYRQAPGKQRELVALIFSGGSADYADSVKGRFTISRDNSKNTVYLQMNSLRPEDTAVYYCAAEIGYYSGGTYYSSEAHWGQGTLVTVSS |  |  |  |  |  |  |  |  |  |  |  |  |  | 0.177

Continued, values first:

IL-17A-induced IL-6 production in HT-1080 cells, Emax (human IL-17A [1]) [%] | IL-17A-induced IL-6 production in HT-1080 cells, IC50 (human IL-17A [1]) [nM] | binding result (human IL-17F [2]) | IC50 [3] [nM] | IC50 [4] [nM] | IC50 (human IL-17A [5]) [nM] | koff (human IL-17A [6]) [s⁻¹] | IC50 (human IL-17A [7]) [nM] | koff (human IL-17A [8]) [s⁻¹] | koff (human IL-17F [9]) [s⁻¹] | koff [10] [s⁻¹] | IC50 fold difference vs WT (human IL-17F [11]) [fold] | IC50 fold difference vs WT (human IL-17A [12]) [fold] | IC50 (human IL-17A [13]) [nM] | Binder
 |  |  |  |  |  |  |  | 0.000216 | 0.00432 | 6.43e-05 | 0.9 | 2.75 |  | IL17MS3021 (VHH, variant of IL17MS13E02; Kabat numbering) VHH: EVQLVESGGGLVQPGGSLRLSCAASGRTYDAMGWLRQAPGKEREFVAAISGSGDDTYYADSVKGRFTISKDNSKITMYLQMNSLRPEDTAVYYCATRRGLYYVWDSNDYENWGQGTLVTVSS
 |  |  |  |  |  |  |  | 2.84e-05 | 0.00147 | < 1e-06 | 1.3 | 1.24 |  | IL17MS3020 (VHH, variant of IL17MS13E02; Kabat numbering) VHH: EVQLVESGGGLVQPGGSLRLSCAASGRTYDAMGWLRQAPGKEREFVAAISGSGDDTYYADSVKGRFTISRDNSGITMYLQMNSLRPEDTAVYYCATRRGLYYVWDSNDYENWGQGTLVTVSS
 |  |  |  |  |  |  |  | 6.41e-05 | 0.0024 | 9.89e-06 | 0.9 | 1.17 |  | IL17MS3022 (VHH, variant of IL17MS13E02; Kabat numbering) VHH: EVQLVESGGGLVQPGGSLRLSCAASGRTYDAMGWLRQAPGKEREFVAAISGSGDDTYYADSVKGRFTISKDNSGNTMYLQMNSLRPEDTAVYYCATRRGLYYVWDSNDYENWGQGTLVTVSS
 |  |  |  |  |  |  |  | 7.59e-05 | 0.00431 | 3.65e-05 | 1.22 | 2 |  | IL17MS3035 (VHH, variant of IL17MS13E02; Kabat numbering) VHH: EVQLVESGGGLVQAGGSLRLSCAASGRTYDAMGWLRQAPGKEREFVAAISGSGDDTYYADSVKGRFTISKDNAGITLYLQMNSLKPEDTAVYYCATRRGLYYVWDSNDYENWGQGTQVTVSS
 |  |  |  |  |  |  |  | 0.000116 | 0.00367 | 4.67e-05 | 1 | 1.61 |  | IL17MS3037 (VHH, variant of IL17MS13E02; Kabat numbering) VHH: EVQLVESGGGLVQAGGSLRLSCAASGRTYDAMGWLRQAPGKEREFVAAISGSGDDTYYADSVKGRFTISKDNAGITMYLQMNSLKPEDTAVYYCATRRGLYYVWDANDYENWGQGTQVTVSS
 |  |  |  |  |  |  |  | 0.000132 | 0.0044 | 4.31e-05 | 2.2 | 2.06 |  | IL17MS3036 (VHH, variant of IL17MS13E02; Kabat numbering) VHH: EVQLVESGGGLVQAGGSLRLSCAASGRTYDAMGWLRQAPGKEREFVAAISGSGDDTYYADSVKGRFTISKDNAGITMYLQMNSLKPEDTAVYYCATRRGLYYVWDTNDYENWGQGTQVTVSS
 |  |  |  |  |  |  |  | 0.000116 | 0.00596 | 4.02e-05 | 2.7 | 1.68 |  | IL17MS3034 (VHH, variant of IL17MS13E02; Kabat numbering) VHH: EVQLVESGGGLVQAGGSLRLSCAASGRTYDALGWLRQAPGKEREFVAAISGSGDDTYYADSVKGRFTISKDNAGITMYLQMNSLKPEDTAVYYCATRRGLYYVWDSNDYENWGQGTQVTVSS
